This is an account of results in paper PMC9036094, “Antigen-derived peptides engage the ER stress sensor IRE1α to curb dendritic cell cross-presentation” (The Journal of Cell Biology, 2022).

For this assay, the system named is ATF6 in BMDCs. The assay is described as follows: ATF6 activation in BMDCs (immunoblot, proteolytic processing). As to conditions: MG132 5 μM or ovalbumin 500 μg/ml, in words. Type of assay: cell-based, mouse. How it is done:
Figure S1. Antigen pulsing of BMDCs activates IRE1α. (A) BMDCs were treated with MG132 (5 μM) or ovalbumin (500 μg/ml) for indicated time points and analyzed by IB. (B) BMDCs were pulsed with ovalbumin (500 μg/ml) and G9668 (3 μM) for indicated time periods and analyzed by IB. (C) Molecular structure, potency, and kinase selectivity of G9668. (D) Schematic representation of G9668 interaction with 220 kinases at 1 μM. Size and color of circles represent interaction strength. Analysis was conducted by KinomeScan. (E) BMDCs were pulsed for 4 h with APC-tagged ovalbumin or soluble CD4-Fc protein (500 μg/ml) with amiloride (10 μM); uptake of protein was assayed by flow cytometry (n = 3). (F) WT or MyD88 KO Flt3L-derived BMDCs were pulsed with ovalbumin (500 μg/ml) or soluble CD4-Fc protein (500 μg/ml), or treated with LPS (10 μg/ml) for 4 h and analyzed by IB. (G) MEFs and BMDCs were pulsed with ovalbumin or treated with Tg (100 nM) for 4 h and analyzed by IB. Images in A, B, F, and G represent at least two similar experiments, and molecular weights represent kD; E bar graphs represent mean ± SD from three independent biological repeats. Analysis for E was performed using unpaired, two-tailed t test; *, P ≤ 0.05; **, P ≤ 0.01. Source data are available for this figure: SourceData FS1. […]
(A western blot detects proteins with antibodies after separation by electrophoresis.)

B1: ovalbumin: classical protein antigen ovalbumin (Sigma-Aldrich) (protein)
chain: MGSIGAASMEFCFDVFKELKVHHANENIFYCPIAIMSALAMVYLGAKDSTRTQINKVVRFDKLPGFGDSIEAQCGTSVNVHSSLRDILNQITKPNDVYSFSLASRLYAEERYPILPEYLQCVKELYRGGLEPINFQTAADQARELINSWVESQTNGIIRNVLQPSSVDSQTAMVLVNAIVFKGLWEKAFKDEDTQAMPFRVTEQESKPVQMMYQIGLFRVASMASEKMKILELPFASGTMSMLVLLPDEVSGLEQLESIINFEKLTEWTSSNVMEERKIKVYLPRMKMEEKYNLTSVLMAMGITDVFSSSANLSGISSAESLKISQAVHAAHAEINEAGREVVGSAEAGVDAASVSEEFRADHPFLFCIKHIATNAVLFFGRCVSP
In the case of B1, the ATF6 activation entry was “relatively minimal activation”.
